Measured values taken from patent CN111748032A (JIANGSU PROVINCIAL CENTER FOR DISEASE CONTROL AND …, dated 2020).
Substitutions are numbered along the chain they refer to.

B1: JS01 (antibody, V domains shown)
VH: QVQLVESGAEVKKPGSSVKVSCKASGGTFSSYAISWVRQAPGQGLEWMGGIIPIFGTANYAQKFQGRVTITADESTSTAYMELSSLRSEDTAVYYCARGGWRSSGYHDYSYYGMDVWGQGTTVTVSS
VL: not shown
B2: JS05 (antibody, V domains shown)
VH: EVQLLESGGGVVQPGRSLRLSCAASGFIFSSYGMHWVRQAPGKGLEWVAVIWYDGSNKYYADSVKGRFTISRDNSKNTLYLQMNSLRAEDTAVYYCARDLRGPTGWTFDYWGQGTLVTVSS
VL: ENVLTQSPATLSLSPGERATLSCRASQSVSNYLAWYQQRPGQAPRLLIYDSSNRATGIPARFSGSGSGTDFTLTISSLEPEDFAVYYCQHRSNWKITFGQGTRLEIK
B3: JS12 (antibody, V domains shown)
VH: EVQLLESGGGVVQPGRSLRLSCAASGFTFSSYGMHWVRQAPGKGLEWVAVIWYDGSNKYYADSVKGRFTISRDNSKNTLYLQMNSLRAEDTAVYYCARDGSGSYYWGSLDYWGQGTLVTVSS
VL: B2 VL with N31S, R39K, D50G, S51A, H90Q, K95P, I96W, R103K, L104V
B4: JS13 (antibody, V domains shown)
VH: QVQLVQSGAEVKKPGSSVKVSCKASGGTFSSYAISWVRQAPGQGLEWMGGIIPIFGTANYAQKFQGRVTITADESTSTAYMELSSLRSEDTAVYYCARGGWVICSSTSCYTKYSYYGMDVWGQGTTVTVSS
VL: QSVLTQPPSVSAAPGQKVTISCSGSSSNIGNNYVSWYQQLPGTAPKLLIYDNNKRPSGIPDRFSGSKSGTSATLGITGLQTGDEADYYCGTWDSSLIARLFGGGTKLTVL
B5: JS14 (antibody, V domains shown)
VH: B3 VH
VL: not shown

Biological target: 重组SARS-CoV2核蛋白(NP) (SARS-CoV-2, UniProt P0DTC9 1-419)
Assay: double-antibody sandwich lateral flow strip, paired with JS08, recombinant NP

| Binder | 检测限 (detection limit) |
| --- | --- |
| B1 | < 2 ng/mL |
| B2 | < 2 ng/mL |
| B3 | < 2 ng/mL |
| B4 | < 2 ng/mL |
| B5 | < 2 ng/mL |
